Test results taken from patent publication US20250250357A1 (NANJING ZAIMING PHARMACEUTICAL, published 2025).
Positions count from the first letter of the chain named.

Legend:
[1] = molecular target: T1, human MSLN-R2-his protein (human, UniProt Q13421 391-486); assay: ELISA on coated antigen, antibody 2 nM
T1 construct: it is put last here; also called human MSLN-R2 protein; hMSLN-R2-his; not shown: His tag
T1 sequence (Q13421 other isoform, or with tags, fused parts or gaps): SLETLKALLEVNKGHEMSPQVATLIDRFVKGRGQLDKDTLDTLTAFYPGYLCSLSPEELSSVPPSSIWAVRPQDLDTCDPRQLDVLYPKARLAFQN

[2] = molecular target: T2, human MSLN-R3-his protein (human, UniProt Q13421 487-598); assay: ELISA on coated antigen, antibody 2 nM
T2 construct: it is put last here; also called human MSLN-R3 protein; hMSLN-R3-his; not shown: His tag
T2 sequence (Q13421 495-606): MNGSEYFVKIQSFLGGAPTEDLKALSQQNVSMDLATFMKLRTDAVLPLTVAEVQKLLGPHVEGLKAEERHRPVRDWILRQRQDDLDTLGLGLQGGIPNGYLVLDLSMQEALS

[3] = molecular target: T1, human MSLN-R2-his protein; assay: ELISA on coated antigen, antibody 20 nM
Experimental: (§1) The plate was sealed with a plastic film and incubated at 4° C. overnight. The next day, the plate was washed twice with PBST, and a blocking buffer [PBS+2% (w/w) BSA] was added for blocking at room temperature for 2 h. The blocking buffer was discarded, and a chimeric antibody or negative control antibody serially diluted from 100 nM was added at 50 μL/well. After incubation at 37° C. for 2 h, the plate was washed 3 times with PBST. […] After incubation at 37° C. for 2 h, the plate was washed 5 times with PBST. A TMB substrate was added at 50 μL/well for incubation at room temperature for 5-10 min, and then a stop solution (1.0 N HCl) was added at 50 μL/well.

[4] = molecular target: T2, human MSLN-R3-his protein; assay: ELISA on coated antigen, antibody 20 nM
Experimental: as §1

[5] = molecular target: T1, human MSLN-R2-his protein; assay: ELISA on coated antigen, antibody 0.2 nM
Experimental: as §1

[6] = molecular target: T1, human MSLN-R2-his protein; assay: ELISA on coated antigen, antibody 200 nM
Experimental: as §1

[7] = molecular target: T2, human MSLN-R3-his protein; assay: ELISA on coated antigen, antibody 0.2 nM
[8] = molecular target: T2, human MSLN-R3-his protein; assay: ELISA on coated antigen, antibody 200 nM
Experimental: as §1

[9] = molecular target: T1, human MSLN-R2-his protein; assay: ELISA on coated antigen, antibody 0.02 nM
Experimental: as §1

[10] = molecular target: T2, human MSLN-R3-his protein; assay: ELISA on coated antigen, antibody 0.02 nM
Experimental: as §1

[11] = molecular target: T1, human MSLN-R2-his protein; assay: ELISA on coated antigen, antibody 0.002 nM
Experimental: as §1

[12] = molecular target: T2, human MSLN-R3-his protein; assay: ELISA on coated antigen, antibody 0.002 nM
Experimental: as §1

[13] = molecular target: T1, human MSLN-R2-his protein; assay: ELISA on coated antigen, antibody 0.0002 nM
Experimental: as §1

[14] = molecular target: T2, human MSLN-R3-his protein; assay: ELISA on coated antigen, antibody 0.0002 nM
Experimental: as §1

[15] = molecular target: T1, human MSLN-R2-his protein; assay: ELISA on coated antigen, no antibody (blank, column 'none')
Experimental: as §1

[16] = molecular target: T2, human MSLN-R3-his protein; assay: as above
Experimental: as §1

[17] = molecular target: T3, human MSLN-R1-his protein (human, UniProt Q13421 296-390); assay: ELISA on coated MSLN-R1; antibody 1 nM
T3 construct: Region 1 of human mesothelin, made in HEK293E cells, His-tagged; also called human MSLN-R1 protein; hMSLN-R1-his; not shown: His tag
T3 chain: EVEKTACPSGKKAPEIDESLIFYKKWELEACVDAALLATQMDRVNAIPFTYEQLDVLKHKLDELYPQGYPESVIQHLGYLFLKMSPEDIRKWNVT

[18] = molecular target: T4, human MSLN-R2-his protein (human, UniProt Q13421 391-486); assay: ELISA on coated MSLN-R2; antibody 1 nM
T4 construct: Region 2 of human mesothelin, made in HEK293E cells, His-tagged; also called human MSLN-R2 protein; hMSLN-R2-his; not shown: His tag
T4 sequence (Q13421 other isoform, or with tags, fused parts or gaps): as the sequence (Q13421 other isoform, or with tags, fused parts or gaps) above

[19] = molecular target: T5, human MSLN-R3-his protein (human, UniProt Q13421 487-598); assay: ELISA on coated MSLN-R3; antibody 1 nM
T5 construct: Region 3 of human mesothelin, made in HEK293E cells, His-tagged; also called human MSLN-R3 protein; hMSLN-R3-his; not shown: His tag
T5 sequence (Q13421 495-606): as the sequence (Q13421 495-606) above

[20] = molecular target: T3, human MSLN-R1-his protein; assay: ELISA on coated MSLN-R1; antibody 10 nM
[21] = molecular target: T4, human MSLN-R2-his protein; assay: ELISA on coated MSLN-R2; antibody 10 nM
Experimental: as §1

[22] = molecular target: T5, human MSLN-R3-his protein; assay: ELISA on coated MSLN-R3; antibody 10 nM
Experimental: as §1

[23] = molecular target: T3, human MSLN-R1-his protein; assay: ELISA on coated MSLN-R1; antibody 0.1 nM
Experimental: as §1

[24] = molecular target: T3, human MSLN-R1-his protein; assay: ELISA on coated MSLN-R1; antibody 100 nM
[25] = molecular target: T4, human MSLN-R2-his protein; assay: ELISA on coated MSLN-R2; antibody 0.1 nM
[26] = molecular target: T4, human MSLN-R2-his protein; assay: ELISA on coated MSLN-R2; antibody 100 nM
Experimental: as §1

[27] = molecular target: T5, human MSLN-R3-his protein; assay: ELISA on coated MSLN-R3; antibody 0.1 nM
Experimental: as §1

[28] = molecular target: T5, human MSLN-R3-his protein; assay: ELISA on coated MSLN-R3; antibody 100 nM
Experimental: as §1

[29] = molecular target: T3, human MSLN-R1-his protein; assay: ELISA on coated MSLN-R1; antibody 0.01 nM
Experimental: as §1

[30] = molecular target: T4, human MSLN-R2-his protein; assay: ELISA on coated MSLN-R2; antibody 0.01 nM
Experimental: as §1

[31] = molecular target: T5, human MSLN-R3-his protein; assay: ELISA on coated MSLN-R3; antibody 0.01 nM
Experimental: as §1

[32] = molecular target: T3, human MSLN-R1-his protein; assay: ELISA on coated MSLN-R1; antibody 0.001 nM
Experimental: as §1

[33] = molecular target: T4, human MSLN-R2-his protein; assay: ELISA on coated MSLN-R2; antibody 0.001 nM
Experimental: as §1

[34] = molecular target: T5, human MSLN-R3-his protein; assay: ELISA on coated MSLN-R3; antibody 0.001 nM
Experimental: as §1

[35] = molecular target: T3, human MSLN-R1-his protein; assay: ELISA on coated MSLN-R1; antibody 0.0001 nM
[36] = molecular target: T4, human MSLN-R2-his protein; assay: ELISA on coated MSLN-R2; antibody 0.0001 nM
Experimental: as §1

[37] = molecular target: T5, human MSLN-R3-his protein; assay: ELISA on coated MSLN-R3; antibody 0.0001 nM
Experimental: as §1

[38] = molecular target: T3, human MSLN-R1-his protein; assay: ELISA on coated MSLN-R1; no antibody (blank)
Experimental: as §1

[39] = molecular target: T4, human MSLN-R2-his protein; assay: ELISA on coated MSLN-R2; no antibody (blank)
Experimental: as §1

[40] = molecular target: T5, human MSLN-R3-his protein; assay: ELISA on coated MSLN-R3; no antibody (blank)

B1: S009-F7.11.11 (antibody, human IgG1, kappa, V domains shown)
VH: EVQLQQSGPELVKPGASVKIPCKASGYTITDYNMDWVKQSRGKSLEWIGDVFPYNGDSIYNQKFEGRATLTVDKYSSTAYMELRGLTSEDTAVYFCARRKTGTGYFDVWGTGTTVTVSS
VL: QLVLTQSPAIMSASPGEKVTLTCSASSSVSSTYLSWYLQKPGSSPKLWIYSTSNLASGVPARFSGSGSGTSYSLTISSMEAEDAASYFCHQWSSYPYTFGGGTKLEIKR
notes: Human-murine chimeric antibody, human IgG1 heavy and kappa light constant regions
OD450 [1]: 0.05 OD | OD450 [2]: 2.41 OD | OD450 [3]: 0.06 OD | OD450 [4]: 2.58 OD | OD450 [5]: 0.05 OD | OD450 [6]: 0.07 OD | OD450 [7]: 1.37 OD | OD450 [8]: 3.12 OD | OD450 [9]: 0.05 OD | OD450 [10]: 0.32 OD | OD450 [11]: 0.05 OD | OD450 [12]: 0.09 OD | OD450 [13]: 0.05 OD | OD450 [14]: 0.06 OD | OD450 [15]: 0.06 OD | OD450 [16]: 0.06 OD

B2: S009-F7.12.13 (antibody, human IgG1, kappa, V domains shown)
VH: EVQLQQSGPELVKPGASVKIPCKASGYTFTDYNMDWVKQSHGKGLEWIGDINPNTDDTIYNQKFNGKATLTVDKSSSTAYMELRSLTSEDTAVYYCSRRLIGTGYFDVWGTGTTVTVSS
VL: B1 VL with L2I, S30I, S35C, L38R, K46E, S94N, E106G, I107M
notes: as for B1
OD450 [1]: 0.05 OD | OD450 [2]: 2.48 OD | OD450 [3]: 0.06 OD | OD450 [4]: 2.67 OD | OD450 [5]: 0.05 OD | OD450 [6]: 0.08 OD | OD450 [7]: 1.67 OD | OD450 [8]: 2.96 OD | OD450 [9]: 0.05 OD | OD450 [10]: 0.36 OD | OD450 [11]: 0.05 OD | OD450 [12]: 0.15 OD | OD450 [13]: 0.05 OD | OD450 [14]: 0.06 OD | OD450 [15]: 0.06 OD | OD450 [16]: 0.06 OD

B3: S009-F8-36.12 (antibody, human IgG1, kappa, V domains shown)
VH: EVQLQQSGPELVKPGASVKISCKASGYTFTDYYMNWVKQSHGKSLEWIGDINPNNGGTSYNQKFKGKATLTVDKSSSTAYMELRSLTSEDSAVYYCASWGYGSSSRGYFDYWGQGTTLTVSS
VL: QIVLSQSPAILSASPGEKVTMTCRASSSVSYMHWYQQKPGSSPKPWIYATSNLASGVPARFSGSGSGTSYSLTISRVEAEDAATYYCQQWSSNPWTFGGGTKLEIKR
OD450 [17]: 0.04 OD450 | OD450 [18]: 0.04 OD450 | OD450 [19]: 0.05 OD450 | OD450 [20]: 0.04 OD450 | OD450 [21]: 0.04 OD450 | OD450 [22]: 0.14 OD450 | OD450 [23]: 0.04 OD450 | OD450 [24]: 0.05 OD450 | OD450 [25]: 0.03 OD450 | OD450 [26]: 0.05 OD450 | OD450 [27]: 0.04 OD450 | OD450 [28]: 1.19 OD450 | OD450 [29]: 0.04 OD450 | OD450 [30]: 0.04 OD450 | OD450 [31]: 0.04 OD450 | OD450 [32]: 0.04 OD450 | OD450 [33]: 0.04 OD450 | OD450 [34]: 0.04 OD450 | OD450 [35]: 0.04 OD450 | OD450 [36]: 0.04 OD450 | OD450 [37]: 0.04 OD450 | OD450 [38]: 0.03 OD450 | OD450 [39]: 0.04 OD450 | OD450 [40]: 0.04 OD450

B4: S009-F7.2.3 (antibody, human IgG1, kappa, V domains shown)
VH: ELQLVESGGDLVKPGGSLKLSCAASGFTFSSNGMSWLRQTPDKRLEWVATISSGGRYTYYPDSVKGRFTISRDNAKNTLYLQMSSLKSEDTAMYYCARRGIYDYFDCWGQGTTLTVSS
VL: DIQMTQSPASLSISVGETVTITCRASENIHSSLAWYQQKQGKSPQLLVYAATNLADGVPSRFSGSGSGSQYSLKINSLQSEDFGTYYCQHFWGTPWTFGGGTKLDIKR
notes: as for B1
OD450 [1]: 2.37 OD | OD450 [2]: 0.07 OD | OD450 [3]: 2.38 OD | OD450 [4]: 0.1 OD | OD450 [5]: 2.12 OD | OD450 [6]: 2.74 OD | OD450 [7]: 0.06 OD | OD450 [8]: 0.2 OD | OD450 [9]: 1.22 OD | OD450 [10]: 0.06 OD | OD450 [11]: 0.41 OD | OD450 [12]: 0.06 OD | OD450 [13]: 0.14 OD | OD450 [14]: 0.06 OD | OD450 [15]: 0.06 OD | OD450 [16]: 0.07 OD

B5: S009-F7.6.17 (antibody, human IgG1, kappa, V domains shown)
VH: QVQLQQSGAELARPGASVKMSCKASGYTFTTYTMHWVKQRPGQGLEWIGYISPTGDFTKYNQKFKDKATLTTDKSSNTAFMQLSSLTSEDSAVYYCARWNGTVWFAYWGQGTLVTVSA
VL: DIVMTQSQKFMSTSVGDRVTVTCKASQALGTNVAWYQQKPGQSPKVLIYSASYRYSGVPYRFAGGGSGTDFTLTITNVQSEDLAEYFCQQYNNYPLTFGAGTKLELKR
notes: as for B1
OD450 [1]: 0.05 OD | OD450 [2]: 2.86 OD | OD450 [3]: 0.07 OD | OD450 [4]: 2.81 OD | OD450 [5]: 0.05 OD | OD450 [6]: 0.13 OD | OD450 [7]: 2.64 OD | OD450 [8]: 3.1 OD | OD450 [9]: 0.05 OD | OD450 [10]: 1.55 OD | OD450 [11]: 0.05 OD | OD450 [12]: 0.56 OD | OD450 [13]: 0.05 OD | OD450 [14]: 0.13 OD | OD450 [15]: 0.06 OD | OD450 [16]: 0.08 OD
